Test results published in publication PMC5882628, “Development of a Cell-Based Assay to Assess Binding of the proNGF Prodomain to Sortilin” (Cellular and Molecular Neurobiology, 2017).
Entries after “also recorded” stand apart in the source; their conditions may differ.

Assays:
sortilin = biological target: T1, sortilin (Homo sapiens, UniProt Q99523); experiment: GSTpro binding to wt sortilin-transfected HEK293 cells, staining without detergent permeabilization; format: cell-based; details: versus staining with detergent, Fig. 6a vs 6b
T1 construct: They were transfected with plasmids either encoding wild type sortilin, or sortilin with a mutation that renders it endocytosis deficient; expressed in transfected cells; host or cells: HEK 293 cells, transient transfection (lipofectamine)
T1 sequence (Q99523 78-831): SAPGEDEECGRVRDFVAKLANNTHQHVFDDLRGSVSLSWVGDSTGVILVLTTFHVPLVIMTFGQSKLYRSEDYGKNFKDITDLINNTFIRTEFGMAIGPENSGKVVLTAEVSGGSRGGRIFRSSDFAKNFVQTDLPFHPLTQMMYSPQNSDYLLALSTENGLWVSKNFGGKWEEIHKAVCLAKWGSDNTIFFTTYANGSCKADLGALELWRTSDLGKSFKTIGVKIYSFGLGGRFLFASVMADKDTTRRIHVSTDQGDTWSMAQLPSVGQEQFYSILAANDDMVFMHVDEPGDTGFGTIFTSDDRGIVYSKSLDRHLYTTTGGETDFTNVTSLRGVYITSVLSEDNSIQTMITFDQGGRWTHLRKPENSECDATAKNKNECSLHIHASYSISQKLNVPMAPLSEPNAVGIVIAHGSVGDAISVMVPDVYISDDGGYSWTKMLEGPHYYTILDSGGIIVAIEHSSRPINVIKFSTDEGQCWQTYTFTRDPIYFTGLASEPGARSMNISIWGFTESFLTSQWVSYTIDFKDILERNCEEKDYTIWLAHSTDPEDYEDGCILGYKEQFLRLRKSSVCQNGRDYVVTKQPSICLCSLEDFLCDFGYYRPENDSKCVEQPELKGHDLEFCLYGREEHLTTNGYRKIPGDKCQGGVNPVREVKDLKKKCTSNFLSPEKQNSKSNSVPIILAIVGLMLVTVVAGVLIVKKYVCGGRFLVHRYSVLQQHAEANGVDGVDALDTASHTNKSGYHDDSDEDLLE
Protocol: (§1) HEK 293 cells were grown in DMEM with 10% fetal bovine serum. They were transfected with plasmids either encoding wild type sortilin, or sortilin with a mutation that renders it endocytosis deficient, or an empty control vector according to manufacturer’s instructions using 20 µg lipofectamine (Thermo Fischer Scientific) with 8 µg DNA on […] per 6 cm, poly-lysine coated dish. The cells were initially plated into 24-well dishes after transfection. That intermediate step rendered more uniform cell numbers in the 96-well dishes that were used to run the actual assay. 24 h later, cells were split into black opaque-walled, clear-bottom 96 well dishes at 42000 cells in 80 µl medium/well. […]
(§2) The fixed cells were washed with PBS for 15 min, followed by two 15 min washes with PBS with 0.1% Triton X-100. […] Wells to be evaluated for blocking of the sortilin-GSTpro interaction by antibodies were only stained with an antibody against the pro domain of proNGF in 10% FBS at a dilution of 1:1500 (Millipore (N-term) clone EPI318Y, Rabbit Monoclonal Antibody Catalog Number: #04-1142). […]
(§3) The following day, wells were washed 3 × 15 min with PBS/0.1% Triton X-100. […] Cellular fluorescence was quantified using an array scanner and the “Neuronal Profiler” Bioapplication (Thermo Fisher Scientific) as described below.

[1] = system: internalization-mutant sortilin; experiment: GSTpro binding to HEK293 cells expressing internalization-mutant sortilin; format: cell-based, human; details: compared with wild type sortilin
Protocol: as §1, §2, §3

B1: GSTpro: fusion of Glutathione S-transferase (GST) merged at the C-terminal of GST to the pro part (19–121) of human proNGF (protein)
chain: EPHSESNVPAGHTIPQAHWTKLQHSLDTALRRARSAPAAAIAARVAGQTRNITVDPRLFKKRRLRSPRVLFSTQPPREAADTQDLDFEVGGAAPFNRTHRSKR
modifications: left off: GST, N-terminal, kept
notes: fusion of Glutathione S-transferase (GST) merged at the C-terminal of GST to the pro part (19–121) of human proNGF
reduction of GSTpro signal without permeabilization (sortilin; cells expressing sortilin below the set threshold): less than half reduced | reduction of GSTpro signal without permeabilization (sortilin; sortilin-positive cells): almost fourfold reduced; also recorded: much lower GSTpro signal | GSTpro signal in internalization-mutant versus wt sortilin cells (in words) [1]: stronger GSTpro signal than wild type sortilin; also recorded: slightly higher signal
